Data reported in patent US20180364250A1 (published 2018).
Read-outs that look alike come from different tables or passages of the source. Each block holds one binder with its values, some of them ahead of it.

Key:
[1] = biological target: T1, Ubiquitin (free, untagged) (UniProt P0CG48 1-76)
[2] = biological target: T1, Ubiquitin (free, untagged); assay: fluorescence intensity
[3] = biological target: K63 Ub2; assay: fluorescence competition with 5 nM Atto532-Ub(S20C) and 600 nM tSR
[4] = biological target: K48 Ub4; assay: as above
[5] = biological target: K11 Ub2; assay: as above
[6] = biological target: T1, Ubiquitin (free, untagged); assay: competition

Kd [1]: 8.4 µM
B1: Atto532-tagged IsoT^ZnF (S227C) (designed binder)
chain: MPSSHHHHHHSSGLVPRGSHMKQEVQAWDGEVRQVSKHAFSLKQLDNPARIPPSGWKCSKCDMRENLWLNLTDGSILCGRRYFDGCGGNNHAVEHYRETGYPLAVKLGTITPDGADVYSYDEDDMVLDPSLAEHLSHFGIDMLKMQK
modifications: Atto532 fluorophore on the Cys of S227C (the bold C of the 2nd table)

Kd [2]: 0.587 µM
B2: Atto532-tagged tIV L1 Cys (designed binder)
chain: MGSSHHHHHHSSGLVPRGSHMKQEVQAWDGEVRQVSKHAFSLKQLDNPARIPPSGWKCSKCDMRENLWLNLTDGSILCGRRYFDGSGGNNHAVEHYRETGYPLAVKLGTITPDGADVWSYDEDDMVLDPSLAEHLSHFGIDMLKMQKGSCAAAEEAELDLKAAIQESLREA
modifications: Atto532 fluorophore on the Cys of linker 1 (the bold C of the 2nd table)

Ki [3]: 4.3 µM
Ki [4]: 4 µM
Ki [5]: 4.2 µM
B3: tSR (designed binder)
chain: MPSSHHHHHHSSGLVPRGSHMTEEEQIAYAMQMSLREAGGGSDLLCKKGCGYYGNPAWQGFCSKCWREEAHKCAAERAAAE

Ki [6]: 4.3 µM
B4: tSR chimeric polypeptide sensor (designed binder)
chain: MPSSHHHHHHSSGLVPRGSHMTEEEQIAYAMQMSLREAGGGSDLLCKKGCGYYGNPAWQGFCSKCWREEAHKCAAERAAAE
